Assay results as given in patent US20110053865A1 (published 2011).
Like-named read-outs stand apart in the source and are kept apart here.

Legend:
124G2 = experiment: Biacore; R&D hIL23
12D11 = experiment: Biacore; R&D hIL23
124B6 = experiment: Biacore; R&D hIL23
4E7 = experiment: Biacore; R&D hIL23
124E3 = experiment: Biacore; R&D hIL23
124D2 = experiment: Biacore; R&D hIL23
124H2 [1] = experiment: Biacore; R&D hIL23
124E5 = experiment: Biacore; R&D hIL23
4D2 = experiment: Biacore; R&D hIL23
4E3 = experiment: Biacore; R&D hIL23
12C10 = experiment: Biacore; R&D hIL23
12F11 = experiment: Biacore; R&D hIL23
12E11 = experiment: Biacore; R&D hIL23
124F10 = experiment: Biacore; R&D hIL23
12A11 = experiment: Biacore; R&D hIL23
12D2 = experiment: Biacore; R&D hIL23
124H1 = experiment: Biacore; R&D hIL23
124G4 [2] = experiment: Biacore; R&D hIL23
124D11 [3] = experiment: Biacore; R&D hIL23
12G7 = experiment: Biacore; R&D hIL23
4A11 = experiment: Biacore; R&D hIL23
124B5 [4] = experiment: Biacore; R&D hIL23
12A4 = experiment: Biacore; R&D hIL23
124D4 [5] = experiment: Biacore; R&D hIL23
124C3 = experiment: Biacore; R&D hIL23
124H5 [6] = experiment: Biacore; R&D hIL23
124C5 = experiment: Biacore; R&D hIL23
4E11 = experiment: Biacore; R&D hIL23
124F7 = experiment: Biacore; R&D hIL23
12H2 = experiment: Biacore; R&D hIL23
124F9 = experiment: Biacore; R&D hIL23
80C10 [7] = experiment: Biacore
3C7 = experiment: Biacore
121C1 = 84D3 = experiment: Biacore
3H5 = experiment: Biacore
3A7 = experiment: Biacore
3A11 = experiment: Biacore
1G8 = experiment: Biacore
4F3 = experiment: Biacore
3G9 = experiment: Biacore
3E1 = experiment: Biacore
3A10 = experiment: Biacore
3D4 = experiment: Biacore
80C10 [8] = experiment: Biacore; remark: listed apart in the source
121C1 = experiment: Biacore
124H2 [9] = experiment: Biacore
124G4 [10] = experiment: Biacore
124D11 [11] = experiment: Biacore
124B5 [12] = experiment: Biacore
124D4 [13] = experiment: Biacore
124H5 [14] = experiment: Biacore

B1: R&D hIL23 (ligand)
chain 1: RAVPGGSSPAWTQCQQLSQKLCTLAWSAHPLVGHMDLREEGDEETTNDVPHIQCGDGCDPQGLRDNSQFCLQRIHQGLIFYEKLLGSDIFTGEPSLLPDSPVGQLHASLLGLSQLLQPEGHHWETQQIPSLSPSQPWQRLLLRFKILRSLQAFVAVAARVFAHGAATLSP
chain 2: IWELKKDVYVVELDWYPDAPGEMVVLTCDTPEEDGITWTLDQSSEVLGSGKTLTIQVKEFGDAGQYTCHKGGEVLSHSLLLLHKKEDGIWSTDILKDQKEPKNKTFLRCEAKNYSGRFTCWWLTTISTDLTFSVKSSRGSSDPQGVTCGAATLSAERVRGDNKEYEYSVECQEDSACPAAEESLPIEVMVDAVHKLKYENYTSSFFIRDIIKPDPPKNLQLKPLKNSRQVEVSWEYPDTWSTPHSYFSLTFCVQVQGKSKREKKDRVFTDKTSATVICRKNASISVRAQDRYYSSSWSEWASVPCS
koff (124G2): 6.55e-05 s⁻¹ | koff (12D11): 0.000121 s⁻¹ | koff (124B6): 0.000249 s⁻¹ | koff (4E7): 0.000101 s⁻¹ | koff (124E3): 0.000261 s⁻¹ | koff (124D2): 9.08e-05 s⁻¹ | koff (124H2 [1]): 0.000116 s⁻¹ | koff (124E5): 0.000187 s⁻¹ | koff (4D2): 0.000111 s⁻¹ | koff (4E3): 0.000164 s⁻¹ | koff (12C10): 0.000289 s⁻¹ | koff (12F11): 0.000235 s⁻¹ | koff (12E11): 0.000237 s⁻¹ | koff (124F10): 0.000169 s⁻¹ | koff (12A11): 0.000134 s⁻¹ | koff (12D2): 0.000101 s⁻¹ | koff (124H1): 0.000158 s⁻¹ | koff (124G4 [2]): 0.000146 s⁻¹ | koff (124D11 [3]): 0.000259 s⁻¹ | koff (12G7): 0.000242 s⁻¹ | koff (4A11): 0.00032 s⁻¹ | koff (124B5 [4]): 0.00022 s⁻¹ | koff (12A4): 0.000295 s⁻¹ | koff (124D4 [5]): 0.000348 s⁻¹ | koff (124C3): 0.000123 s⁻¹ | koff (124H5 [6]): 0.000246 s⁻¹ | koff (124C5): 0.000357 s⁻¹ | koff (4E11): 0.000126 s⁻¹ | koff (124F7): 0.000382 s⁻¹ | koff (12H2): 0.000126 s⁻¹ | koff (124F9): 0.00031 s⁻¹

B2: hIL12 (ligand)
chain 1: RNLPVATPDPGMFPCLHHSQNLLRAVSNMLQKARQTLEFYPCTSEEIDHEDITKDKTSTVEACLPLELTKNESCLNSRETSFITNGSCLASRKTSFMMALCLSSIYEDLKMYQVEFKTMNAKLLMDPKRQIFLDQNMLAVIDELMQALNFNSETVPQKSSLEEPDFYKTKIKLCILLHAFRIRAVTIDRVMSYLNAS
chain 2: IWELKKDVYVVELDWYPDAPGEMVVLTCDTPEEDGITWTLDQSSEVLGSGKTLTIQVKEFGDAGQYTCHKGGEVLSHSLLLLHKKEDGIWSTDILKDQKEPKNKTFLRCEAKNYSGRFTCWWLTTISTDLTFSVKSSRGSSDPQGVTCGAATLSAERVRGDNKEYEYSVECQEDSACPAAEESLPIEVMVDAVHKLKYENYTSSFFIRDIIKPDPPKNLQLKPLKNSRQVEVSWEYPDTWSTPHSYFSLTFCVQVQGKSKREKKDRVFTDKTSATVICRKNASISVRAQDRYYSSSWSEWASVPCS
koff (80C10 [7]): 0.000578 s⁻¹ | koff (3C7): 0.0119 s⁻¹ | koff (121C1 = 84D3): 0.0371 s⁻¹ | koff (3H5): 0.00375 s⁻¹ | koff (3A7): 0.00588 s⁻¹ | koff (3A11): 0.00636 s⁻¹ | koff (1G8): 0.000779 s⁻¹ | koff (4F3): 0.00255 s⁻¹ | koff (3G9): 0.00768 s⁻¹ | koff (3E1): 0.00956 s⁻¹ | koff (3A10): 0.00353 s⁻¹ | koff (3D4): 0.00714 s⁻¹ | koff (80C10 [8]): 0.000578 s⁻¹ | koff (121C1): 0.0371 s⁻¹

B3: R&D mIL23 (ligand)
chain 1: VPRSSSPDWAQCQQLSRNLCMLAWNAHAPAGHMNLLREEEDEETKNNVPRIQCEDGCDPQGLKDNSQFCLQRIRQGLAFYKHLLDSDIFKGEPALLPDSPMEQLHTSLLGLSQLLQPEDHPRETQQMPSLSSSQQWQRPLLRSKILRSLQAFLAIAARVFAHGAATLTEPLVPTA
chain 2: MWELEKDVYVVEVDWTPDAPGETVNLTCDTPEEDDITWTSDQRHGVIGSGKTLTITVKEFLDAGQYTCHKGGETLSHSHLLLHKKENGIWSTEILKNFKNKTFLKCEAPNYSGRFTCSWLVQRNMDLKFNIKSSSSSPDSRAVTCGMASLSAEKVTLDQRDYEKYSVSCQEDVTCPTAEETLPIELALEARQQNKYENYSTSFFIRDIIKPDPPKNLQMKPLKNSQVEVSWEYPDSWSTPHSYFSLKFFVRIQRKKEKMKETEEGCNQKGAFLVEKTSTEVQCKGGNVCVQAQDRYYNSSCSKWACVPCRVRS
koff (124H2 [9]): 0.00291 s⁻¹ | koff (124G4 [10]): 0.00329 s⁻¹ | koff (124D11 [11]): 0.00744 s⁻¹ | koff (124B5 [12]): 0.00105 s⁻¹ | koff (124D4 [13]): 0.0029 s⁻¹ | koff (124H5 [14]): 0.00304 s⁻¹
